Residue numbers refer to the chain shown, from its start.
T1: Human B7H6 (ACRO biosystems, cat. No. B76-H52H8) (human, UniProt Q68D85 25-262)
T1 construct: Bought antigen; also called B7H6 antigen; human B7H6 protein
T1 sequence (looked up): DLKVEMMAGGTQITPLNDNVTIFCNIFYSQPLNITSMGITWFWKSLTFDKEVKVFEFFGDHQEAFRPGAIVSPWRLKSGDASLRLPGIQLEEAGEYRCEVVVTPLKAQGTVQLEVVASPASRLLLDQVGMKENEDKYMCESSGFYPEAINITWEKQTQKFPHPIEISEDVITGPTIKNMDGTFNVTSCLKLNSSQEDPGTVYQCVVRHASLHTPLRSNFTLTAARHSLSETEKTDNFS

B1: CD3xB7H6-11 bispecific antibody (bispecific antibody, human IgG1, L234A L235A)
chain 1: not shown
chain 2: DIVLTQTPLSLSVTPGQPASISCKASQSVDYDGDSYMNWYLQKPGQPPQLLIYAASTLHSGVPDRFSGSGSGTDFTLKISRVEAEDVGVYYCQQSKEDPRTFGQGTKLEIKGGGGSGGGGSGGGGSEVQLVQSGAEVKKPGASVKVSCKASGYTFTDYNMDWVRQAPGQGLEWIGDINPNNGGTLYNQKFRGRVTLTVDKSISTAYMELSRLRSDDTAVYYCARSEVFYGNYADYWGQGTTVTVSSEPKSCDKTHTCPPCPAPEAAGGPSVFLFPPKPKDTLMISRTPEVTCVVVDVSHEDPEVKFNWYVDGVEVHNAKTKPREEQYNSTYRVVSVLTVLHQDWLNGKEYKCKVSNKALPAPIEKTISKAKGQPREPQVCTLPPSRDELTKNQVSLSCAVKGFYPSDIAVEWESNGQPENNYKTTPPVLDSDGSFFLVSKLTVDKSRWQQGNVFSCSVMHEALHNHYTQKSLSLSPGK
notes: Heterodimer of two scFv-Fc units, knob-into-hole human IgG1 Fc; name formed by analogy with CD3xB7H6-14
B2: CD3xB7H6-12 bispecific antibody (bispecific antibody, human IgG1, L234A L235A)
chain 1: not shown
chain 2: B1 chain 2 with Q169K
notes: as for B1
B3: CD3xB7H6-13 bispecific antibody (bispecific antibody, human IgG1, L234A L235A)
chain 1: not shown
chain 2: B1 chain 2 with V62I, I174M, L196M, K200T
notes: as for B1
B4: CD3xB7H6-14 bispecific antibody (bispecific antibody, human IgG1, L234A L235A)
chain 1: not shown
chain 2: B1 chain 2 with V62I, K200T
notes: Heterodimer of two scFv-Fc units, knob-into-hole human IgG1 Fc; lead molecule; also called CD3kB7H6-14
B5: CD3xB7H6-15 bispecific antibody (bispecific antibody, human IgG1, L234A L235A)
chain 1: not shown
chain 2: B1 chain 2 with V62I
notes: as for B1
B6: CD3xB7H6-16 bispecific antibody (bispecific antibody, human IgG1, L234A L235A)
chain 1: not shown
chain 2: B1 chain 2 with V62I, Q169K
notes: as for B1
B7: CD3xB7H6-17 bispecific antibody (bispecific antibody, human IgG1, L234A L235A)
chain 1: not shown
chain 2: DIVLTQSPVSLAVPLGQRATISCKASQSVDYDGDSYMNWYQQKPGQPPKLLIYAASTLHSGIPVRFSGSGSGTDFTLNIHPVEEEDAASYYCQQSKEDPRTFGGGTKLEIKGGGGSGGGGSGGGGSEVLLQQSGPEVVKPGASVKITCKASGYTFTDYNMDWVKQSHGKSLEWIGDINPNNAGTLYNQKFRGRVTLIVDKSSSTAYMELRSLTSDDTAVYYCARSEVFYGNYADYWGQGTTLTVSSEPKSCDKTHTCPPCPAPEAAGGPSVFLFPPKPKDTLMISRTPEVTCVVVDVSHEDPEVKFNWYVDGVEVHNAKTKPREEQYNSTYRVVSVLTVLHQDWLNGKEYKCKVSNKALPAPIEKTISKAKGQPREPQVCTLPPSRDELTKNQVSLSCAVKGFYPSDIAVEWESNGQPENNYKTTPPVLDSDGSFFLVSKLTVDKSRWQQGNVFSCSVMHEALHNHYTQKSLSLSPGK
notes: as for B1
B8: CD3xB7H6-18 bispecific antibody (bispecific antibody, human IgG1, L234A L235A)
chain 1: not shown
chain 2: B7 chain 2 with G33A, A182G
notes: as for B1

Each binder was assayed against T1, Human B7H6 (ACRO biosystems, cat. No. …) (assay: ELISA, B7H6 coated, HRP anti-human IgG detection).
Method: Human B7H6 (ACRO biosystems, cat. No. B76-H52H8) and human CD3 antigen (ACRO biosystems, cat. No. CDD-H52W1) were diluted to 2 μg/mL with coating buffer (35 mM NaHCO₃, 15 mM Na₂CO₃, pH 9.6), respectively. 100 μL of the diluted solution was added to each well of an ELISA plate at 4° C. overnight, and then washes with PBST (0.05% Tween 20-PBS, pH 7.2) 3 times. 300 μL of blocking buffer (1% BSA, 0.05% Tween20-PBS, pH 7.2) was added to the plate and allowed to stand at room temperature for 2 h, followed by washing with PBST three times. The corresponding bispecific antibody was added to each well and incubated at room temperature for 1 h, followed by washing with PBST three times. 100 μL of HRP-rabbit anti human IgG secondary antibody (Boster, cat. No. BA1070) diluted in blocking buffer was added to each well and incubated for 1 h at room temperature, followed by washing with PBST three times. TMB was added into each well. The plate was kept away from light at room temperature for 2-5 min, the reaction was stopped by adding 2 M sulfuric acid in each well, and finally OD450 values were read with microplate reader.
B1: binds. B2: binds. B3: binds. B4: binds. B5: binds. B6: binds. B7: binds. B8: binds.

Source: US20240124615A1 (HEFEI TG IMMUNOPHARMA, published 2024)
